Among the data in patent US20260297172 (published 2026) are Kd, binding result and IC50 values, retold here.

Sequences and labels used below:
T1: S100A8/A9 (human, UniProt P05109)
T1 chain 1: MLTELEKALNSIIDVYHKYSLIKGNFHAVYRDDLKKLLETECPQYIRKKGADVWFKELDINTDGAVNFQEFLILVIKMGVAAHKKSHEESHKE
T1 chain 2: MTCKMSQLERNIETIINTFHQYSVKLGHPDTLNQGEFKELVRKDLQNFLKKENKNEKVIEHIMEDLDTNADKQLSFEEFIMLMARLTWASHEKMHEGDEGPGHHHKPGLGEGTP

T2: S100A9 (human, UniProt P06702)
T2 chain: T1 chain 2

T3: S100A8 (human, UniProt P05109)
T3 chain: T1 chain 1

B1: ROIS-2 (antibody, V domains shown)
VH: NVQLVESGGGLIHPGGSLSLSCKASGFSFSSGCWVCWVRQAPGKGLEWVACIYTGDGDTYYADSVKGRFTISRTSSKTTVYLQMNSLRAEDTAVYYCASPQPGDITYLGFWGQGTLVTVSS
VL: DIHMTQSPSSLSASVGDTVTITCQASQNINSYLSWYQQKPGKAPKLLISLASDLASGVPSRFSGSESGTDYTLTISSLQPEDFATYYCQGYFADSGSSGRSWAFGQGTKVEIKR
B2: ROIS-5 (antibody, V domains shown)
VH: QVSLEESGGDLVQPGGSLRLACVASGFSFSSGCWVCWVRQAPGKGLEWVSCIYTGDGDTYYANSVRGRFTVSRRNSTTSVYLQMNSLRADDTALYFCASPQPGDITYLGFWGPGTLVTVSS
VL: B1 VL
B3: ROIS-3 (antibody, V domains shown)
VH: B2 VH with R74Q
VL: B1 VL
B4: ROIS-4 (antibody, V domains shown)
VH: B2 VH with R74K
VL: B1 VL
B5: ROIS-1 (antibody, V domains shown)
VH: B1 VH with K66R
VL: B1 VL with K39E
B6: 8H6-HC (antibody, V domains shown)
VH: CQSLEESGGDLVKPEGSLTLTCKASGFSFSSGCWVCWVRQAPGKGLEWIACIYTGDGDTYYANWARGRFTVSRTSSTTVTLQLTSLTAADTATYFCASPQPGDITYLGFWGPGTLVTVSS
VL: DIVMTQTPASVSEPVGGTVTIKCQASQNINSYLSWYQQRPGQPPKLLISLASDLASGVPSRFKGSESGTDYTLTISDLECADAATYYCQGYFADSGSSGRSWAFGGGTEVVVQG
B7: 8H6 (antibody, V domains shown)
VH: B6 VH
VL: B6 VL
B8: 14G9 (antibody, V domains shown)
VH: QEQLVESGGGLVQPEGSLTLTCTASGFSFSSDYYMCWVRQAPGKGLEWIACIGGGYGGSPYYATWAKGRFTISKTSSTAVTLQMTSLTAADTATHFCARGVPGSSCFFDLWGPGTLVTVSS
VL: DVAMTQTPASVSEPVGGTVTIKCQASQSIGSSLAWYQQKSGQPPKLLIYDAFDLASGVSSRFKGSGSGTEYTLTISDLECADAATYFCLGGYYDANTFGGGTEVVVKG
B9: 6C8 (antibody, V domains shown)
VH: QEQLVESGGGLVTLGGSLKLSCKASGIDFSIYGISWVRQAPGKGLEWIAYIYPDYSTTDYASWVNGRFTISFDNAQNTVFLEMTSLTAADTATYFCARRYSGYYGLWGPGTLVTVSS
VL: ALVMTQTPSSVSAPVGGTVTIKCQASQSISSYLAWYQQKPGQRPKLLIYGASSLESGVPSRFKGSGSGTEYTLTISDLECDDAATYYCQGAHAGSSADAFGGGTEVVVKG
B10: 6C8-mIgG2a (antibody, V domains shown)
VH: B9 VH
VL: B9 VL
B11: 8H6-mIgG2a (antibody, V domains shown)
VH: B6 VH
VL: B6 VL

Residue numbers refer to the chain shown, from its start.

The target in one experiment is T1, S100A8/A9. As to the kind of experiment: BLI. For orientation: Biolayer interferometry detects binding as a change in optical thickness at a sensor tip.
Regarding B1, binding was characterised by a dissociation constant (Kd) of 0.608 nM. In other words, the sub-nanomolar range.

The molecule B2 had a Kd of 0.623 nM.

B3: the affinity, expressed as Kd, was 0.0477 nM. This Kd is about 13-fold lower than that of the molecule before.

Turning to B4, the Kd was determined as 1.76 nM.

Molecule B5 came in with a Kd of 0.789 nM. Compared with the last molecule, the Kd is about 2.2-fold lower.

Molecule B6 registered a Kd of 1.37 nM.

A further experiment has as its target T2, S100A9. Put plainly: ELISA. On the technique in general: ELISA stands for enzyme-linked immunosorbent assay.
Turning to B7, the binding result was “no binding”.

For B8, the binding result is on record as “no binding”.

The target in another experiment is T3, S100A8. As to the kind of experiment: ELISA.
Regarding B9, the binding result is listed as “no binding”.

On to B8, for which the binding result is reported as “no binding”.

A further experiment has as its target T1, S100A8/A9. Put plainly: competition ELISA, blocking CD69 binding.
In the case of B10, the IC50 was around 2.5 µg/mL.

On to B11, for which the IC50 is around 1.25 µg/mL.

Broadly, the Kd is the equilibrium constant for the complex coming apart. Low readings indicate a tighter complex, high ones a looser complex. As a reminder, the IC50 is the point on the concentration scale where inhibition reaches its midpoint. Lower therefore signals higher potency.
